These are literature values, as cited in paper PMC3091359.

In general, Kd refers to the free concentration of one partner at which half of the binding sites on the other are occupied at equilibrium, for simple one-to-one binding.

For the data set, the target named is (Pro)renin (Homo sapiens) (UniProt P00797).
Sequence of UniProt P00797 (P00797 67-406): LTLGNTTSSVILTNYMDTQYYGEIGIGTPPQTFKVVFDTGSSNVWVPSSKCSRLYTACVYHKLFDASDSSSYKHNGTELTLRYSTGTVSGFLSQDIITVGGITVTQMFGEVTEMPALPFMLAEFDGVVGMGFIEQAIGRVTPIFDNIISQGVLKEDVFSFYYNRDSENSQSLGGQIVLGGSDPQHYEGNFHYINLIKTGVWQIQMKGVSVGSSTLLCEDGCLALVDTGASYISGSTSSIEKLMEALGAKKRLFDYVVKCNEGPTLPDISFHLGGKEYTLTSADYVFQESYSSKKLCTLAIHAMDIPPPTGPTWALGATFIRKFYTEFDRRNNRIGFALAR

As for “(Pro)renin receptor (from UniProt Q6AXS4)”, the Kd is 3.7 nM.
